{"source": "the supplement of paper PMC9112550", "about": "“Optimization of the antimicrobial peptide Bac7 by deep mutational scanning” (BMC Biology, 2022);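 note: peptides expressed intracellularly from a pBAD plasmid library in pooled LB shake-flask culture, induced with 0.3% L-arabinose, DNA abundance read by NGS, three biological replicates, DESeq2 with apeglm shrinkage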"}
{"tested_on": "Escherichia coli TOP10", "test": "shrunken log2 fold change of peptide-encoding DNA abundance (4.5 h post-induction vs induction); higher = less antimicrobial activity (less host growth inhibition)", "settings": "time post-induction: 4.5 h; library: site-saturation at positions 5, 18, 19, 20"}
{"sequence": "RRIRYRPPRLPRPRPRPHKHPRP", "shrunken log2 fold change": -0.91}
{"sequence": "RRIRMRPPRLPRPRPRPAGMPRP", "shrunken log2 fold change": 0.655}
{"sequence": "RRIRYRPPRLPRPRPRPTPIPRP", "shrunken log2 fold change": -0.158}
{"sequence": "RRIRWRPPRLPRPRPRPEIMPRP", "shrunken log2 fold change": 1.1}
{"sequence": "RRIRKRPPRLPRPRPRPTWWPRP", "shrunken log2 fold change": 0.0302}
{"sequence": "RRIRFRPPRLPRPRPRPKRAPRP", "shrunken log2 fold change": 0.244}
{"sequence": "RRIRHRPPRLPRPRPRPQNFPRP", "shrunken log2 fold change": -0.522}
{"sequence": "RRIRMRPPRLPRPRPRPTCQPRP", "shrunken log2 fold change": -0.049}
{"sequence": "RRIRMRPPRLPRPRPRPSASPRP", "shrunken log2 fold change": 1.7}
{"sequence": "RRIRTRPPRLPRPRPRPCTKPRP", "shrunken log2 fold change": 0.0197}
{"sequence": "RRIRKRPPRLPRPRPRPSPEPRP", "shrunken log2 fold change": 0.525}
{"sequence": "RRIRFRPPRLPRPRPRPGGQPRP", "shrunken log2 fold change": 0.0786}
{"sequence": "RRIRLRPPRLPRPRPRPHLKPRP", "shrunken log2 fold change": -0.564}
{"sequence": "RRIRQRPPRLPRPRPRPSYIPRP", "shrunken log2 fold change": -0.417}
{"sequence": "RRIRNRPPRLPRPRPRPCWNPRP", "shrunken log2 fold change": -0.429}
{"sequence": "RRIRARPPRLPRPRPRPCPLPRP", "shrunken log2 fold change": -0.132}
{"sequence": "RRIRERPPRLPRPRPRPHTDPRP", "shrunken log2 fold change": -0.546}
{"sequence": "RRIRHRPPRLPRPRPRPFSGPRP", "shrunken log2 fold change": 0.136}
{"sequence": "RRIRWRPPRLPRPRPRPSDRPRP", "shrunken log2 fold change": -0.0684}
{"sequence": "RRIRRRPPRLPRPRPRPLTAPRP", "shrunken log2 fold change": 0.337}
{"sequence": "RRIRQRPPRLPRPRPRPQVNPRP", "shrunken log2 fold change": -0.499}
{"sequence": "RRIRARPPRLPRPRPRPSYMPRP", "shrunken log2 fold change": -0.761}
{"sequence": "RRIRWRPPRLPRPRPRPGAAPRP", "shrunken log2 fold change": 1.06}
{"sequence": "RRIRNRPPRLPRPRPRPMWVPRP", "shrunken log2 fold change": 0.0358}
{"sequence": "RRIRTRPPRLPRPRPRPIVIPRP", "shrunken log2 fold change": -0.054}
{"sequence": "RRIRWRPPRLPRPRPRPMLNPRP", "shrunken log2 fold change": -0.00515}
{"sequence": "RRIRPRPPRLPRPRPRPTDQPRP", "shrunken log2 fold change": 0.399}
{"sequence": "RRIRNRPPRLPRPRPRPHEQPRP", "shrunken log2 fold change": -0.066}
{"sequence": "RRIRIRPPRLPRPRPRPEIHPRP", "shrunken log2 fold change": -0.0126}
{"sequence": "RRIRPRPPRLPRPRPRPLSIPRP", "shrunken log2 fold change": -0.498}
{"sequence": "RRIRQRPPRLPRPRPRPCSRPRP", "shrunken log2 fold change": 0.0758}
{"sequence": "RRIRCRPPRLPRPRPRPKFYPRP", "shrunken log2 fold change": -0.309}
{"sequence": "RRIRLRPPRLPRPRPRPQAIPRP", "shrunken log2 fold change": -0.152}
{"sequence": "RRIRWRPPRLPRPRPRPEMIPRP", "shrunken log2 fold change": 0.0062}
{"sequence": "RRIRVRPPRLPRPRPRPDQSPRP", "shrunken log2 fold change": -0.053}
{"sequence": "RRIRIRPPRLPRPRPRPPFKPRP", "shrunken log2 fold change": 0.228}
{"sequence": "RRIRKRPPRLPRPRPRPDQHPRP", "shrunken log2 fold change": -0.0427}
{"sequence": "RRIRERPPRLPRPRPRPHRVPRP", "shrunken log2 fold change": 0.0121}
{"sequence": "RRIRVRPPRLPRPRPRPQMIPRP", "shrunken log2 fold change": -0.425}
{"sequence": "RRIRFRPPRLPRPRPRPLFRPRP", "shrunken log2 fold change": -0.372}
{"sequence": "RRIRKRPPRLPRPRPRPHSRPRP", "shrunken log2 fold change": 0.147}
{"sequence": "RRIRCRPPRLPRPRPRPKKQPRP", "shrunken log2 fold change": 0.155}
{"sequence": "RRIRERPPRLPRPRPRPFAEPRP", "shrunken log2 fold change": -0.326}
{"sequence": "RRIRPRPPRLPRPRPRPWKFPRP", "shrunken log2 fold change": -0.0127}
{"sequence": "RRIRRRPPRLPRPRPRPNMFPRP", "shrunken log2 fold change": -0.047}
{"sequence": "RRIRSRPPRLPRPRPRPGLWPRP", "shrunken log2 fold change": 0.266}
{"sequence": "RRIRNRPPRLPRPRPRPRWDPRP", "shrunken log2 fold change": 0.249}
{"sequence": "RRIRSRPPRLPRPRPRPYMGPRP", "shrunken log2 fold change": -0.776}
{"sequence": "RRIRWRPPRLPRPRPRPQEGPRP", "shrunken log2 fold change": -0.00127}
{"sequence": "RRIRVRPPRLPRPRPRPKWDPRP", "shrunken log2 fold change": 0.0182}
{"sequence": "RRIRERPPRLPRPRPRPENSPRP", "shrunken log2 fold change": -0.0336}
{"sequence": "RRIRERPPRLPRPRPRPLCTPRP", "shrunken log2 fold change": -0.364}
{"sequence": "RRIRKRPPRLPRPRPRPWTNPRP", "shrunken log2 fold change": -0.0144}
{"sequence": "RRIRVRPPRLPRPRPRPGERPRP", "shrunken log2 fold change": 0.674}
{"sequence": "RRIRSRPPRLPRPRPRPMSFPRP", "shrunken log2 fold change": -0.374}
{"sequence": "RRIRFRPPRLPRPRPRPGWVPRP", "shrunken log2 fold change": 0.176}
{"sequence": "RRIRGRPPRLPRPRPRPCTCPRP", "shrunken log2 fold change": 0.111}
{"sequence": "RRIRARPPRLPRPRPRPLYQPRP", "shrunken log2 fold change": 0.141}
{"sequence": "RRIRTRPPRLPRPRPRPNQSPRP", "shrunken log2 fold change": -0.187}
{"sequence": "RRIRIRPPRLPRPRPRPHGFPRP", "shrunken log2 fold change": -0.383}
{"sequence": "RRIRSRPPRLPRPRPRPSISPRP", "shrunken log2 fold change": -0.584}
{"sequence": "RRIRNRPPRLPRPRPRPPVTPRP", "shrunken log2 fold change": 0.228}
{"sequence": "RRIRDRPPRLPRPRPRPFQKPRP", "shrunken log2 fold change": 0.158}
{"sequence": "RRIRRRPPRLPRPRPRPAIFPRP", "shrunken log2 fold change": -0.0696}
{"sequence": "RRIRKRPPRLPRPRPRPQHAPRP", "shrunken log2 fold change": 0.232}
{"sequence": "RRIRGRPPRLPRPRPRPDKLPRP", "shrunken log2 fold change": -0.0186}
{"sequence": "RRIRDRPPRLPRPRPRPWNGPRP", "shrunken log2 fold change": -0.176}
{"sequence": "RRIRSRPPRLPRPRPRPEERPRP", "shrunken log2 fold change": 0.826}
{"sequence": "RRIRIRPPRLPRPRPRPKLMPRP", "shrunken log2 fold change": -0.171}
{"sequence": "RRIRFRPPRLPRPRPRPVQFPRP", "shrunken log2 fold change": -0.652}
{"sequence": "RRIRWRPPRLPRPRPRPTWCPRP", "shrunken log2 fold change": 0.242}
{"sequence": "RRIRTRPPRLPRPRPRPKPYPRP", "shrunken log2 fold change": -0.607}
{"sequence": "RRIRHRPPRLPRPRPRPDHNPRP", "shrunken log2 fold change": -0.956}
{"sequence": "RRIRPRPPRLPRPRPRPHDMPRP", "shrunken log2 fold change": -1.48}
{"sequence": "RRIRHRPPRLPRPRPRPFLQPRP", "shrunken log2 fold change": 0.0325}
